Source: article PMC8146883, “A New Thermophilic Ene-Reductase from the Filamentous Anoxygenic Phototrophic Bacterium Chloroflexus aggregans” (Microorganisms, 2021)

Biological target: CaOYE, ene-reductase (Old Yellow Enzyme homologue) from Chloroflexus aggregans (Chloroflexus aggregans DSM 9485) (UniProt B8G5D6)
Assay: crystal structure; N-terminally His6-tagged CaOYE at 20 mg/mL in 50 mM Tris-HCl pH 8.0; crystals from 100 mM HEPES pH 7.0, 1.1 M sodium malonate, 0.5% Jeffamine ED-2003, 293 K; space group C2221, 4 molecules per asymmetric unit; dimer seen in the crystal packing

CaOYE, ene-reductase (Old Yellow Enzyme homologue) from Chloroflexus aggregans, sequence (B8G5D6 whole entry): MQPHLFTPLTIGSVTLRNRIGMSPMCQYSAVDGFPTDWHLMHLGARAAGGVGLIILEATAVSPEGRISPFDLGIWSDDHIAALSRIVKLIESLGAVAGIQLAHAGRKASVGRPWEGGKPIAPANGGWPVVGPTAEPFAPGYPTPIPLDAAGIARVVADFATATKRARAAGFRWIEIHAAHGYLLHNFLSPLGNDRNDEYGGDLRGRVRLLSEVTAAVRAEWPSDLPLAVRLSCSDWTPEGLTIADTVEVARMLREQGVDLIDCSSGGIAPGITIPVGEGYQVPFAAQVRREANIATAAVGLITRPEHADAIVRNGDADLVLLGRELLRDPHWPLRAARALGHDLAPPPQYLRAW

CaOYE, ene-reductase (Old Yellow Enzyme homologue) from Chloroflexus aggregans (from UniProt B8G5D6 1-354)
stoichiometry N: 2
